Measured values as given in IntAct's records for PubMed 23064147.

B1: Spindle assembly abnormal protein 6 (Caenorhabditis elegans), O62479 (parent)
chain: MTSKIALFDQTLIASLLQPLSLNQPDFKAYKTKVKLKISEQRNETSGEKELKFEISRSDDFEFLFSETLNNEKYQILARDHDLTVDFDAFPKVIIQHLLCKNIVKNLEEDGEVDARKKAGYHSIADPGKPTEINIILDAEKNFCSFELFSKTPISKGKIFSIKLHAVRGDHLISHLLKICSSQAVKLSTFYKSADELASLRQKCGDLEKQVEKLSGVKEEFEEMSEKFKELEDEVELVKEERENIRLLVEDKEDEVADLKQDTESLQKQLEENQEELEIVGNMLREEQGKVDQLQKRNVAHQKEIGKLRAELGTAQRNLEKADQLLKRNSQQQNQQSLDMRKLGELEADLKEKDSMVESLTETIGILRKELENEKLKAAENMDSFEKLSMENENLKEKIAHYRAQRFSPAPSGLPGLQTGLTNRLTPSFKPVLGPHTPYGANLNSRTPFRDNTTLNFQNSTIATPHAFRFNSQLIADETTGSSVTNTPPAQR
partner: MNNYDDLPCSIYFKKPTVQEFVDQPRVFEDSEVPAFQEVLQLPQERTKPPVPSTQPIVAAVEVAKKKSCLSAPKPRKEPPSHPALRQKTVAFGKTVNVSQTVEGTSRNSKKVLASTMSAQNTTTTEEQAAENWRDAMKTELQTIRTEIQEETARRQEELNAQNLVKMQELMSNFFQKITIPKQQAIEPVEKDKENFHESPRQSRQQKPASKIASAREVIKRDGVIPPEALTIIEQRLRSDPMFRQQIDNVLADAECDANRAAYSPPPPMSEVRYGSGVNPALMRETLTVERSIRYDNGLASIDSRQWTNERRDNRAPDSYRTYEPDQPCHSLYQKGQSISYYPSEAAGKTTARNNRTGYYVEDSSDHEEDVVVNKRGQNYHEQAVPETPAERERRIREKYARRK
B2: Spindle assembly abnormal protein 5 (Caenorhabditis elegans), Q20010 (parent)
chain: B1 partner
partner: B1 chain

Variants of: B1
Conditions: with sas5_caeel sas-5, Q20010

| effect of a mutation on the interaction | Variant |
| --- | --- |
| decreasing interaction | E286A |

Variants of: B1
Conditions: with sas5_caeel sas-5, Q20010
Remark: another data set of the same source

| effect of a mutation on the interaction | Variant |
| --- | --- |
| decreasing interaction | I279A |
| decreasing interaction | M283A |

Variants of: B1
Conditions: with sas5_caeel sas-5, Q20010
Remark: another data set of the same source

| effect of a mutation on the interaction | Variant |
| --- | --- |
| disrupting interaction | I279A |
| disrupting interaction | M283A |

Variants of: B1
Conditions: with sas5_caeel sas-5, Q20010
Remark: another data set of the same source

| effect of a mutation on the interaction | Variant |
| --- | --- |
| decreasing interaction | E287A |

Variants of: B2
Conditions: with sas6_caeel sas-6, O62479

| effect of a mutation on the interaction | Variant |
| --- | --- |
| decreasing interaction | R397C |

Variants of: B2
Conditions: with sas6_caeel sas-6, O62479
Remark: another data set of the same source

| effect of a mutation on the interaction | Variant |
| --- | --- |
| disrupting interaction | R397C |

Variants of: B2
Conditions: with sas6_caeel sas-6, O62479
Remark: another data set of the same source

| effect of a mutation on the interaction | Variant |
| --- | --- |
| decreasing interaction | I396A |

Variants of: B2
Conditions: with sas6_caeel sas-6, O62479
Remark: another data set of the same source

| effect of a mutation on the interaction | Variant |
| --- | --- |
| disrupting interaction | I396A |

Variants of: B2
Conditions: with sas6_caeel sas-6, O62479
Remark: another data set of the same source

| effect of a mutation on the interaction | Variant |
| --- | --- |
| decreasing interaction | Y400A |

Variants of: B2
Conditions: with sas6_caeel sas-6, O62479
Remark: another data set of the same source

| effect of a mutation on the interaction | Variant |
| --- | --- |
| disrupting interaction | Y400A |

Variants of: B2
Conditions: with sas6_caeel sas-6, O62479
Remark: another data set of the same source

| effect of a mutation on the interaction | Variant |
| --- | --- |
| decreasing interaction | R403A |

Variants of: B2
Conditions: with sas6_caeel sas-6, O62479
Remark: another data set of the same source

| effect of a mutation on the interaction | Variant |
| --- | --- |
| disrupting interaction | R403A |
